A short description of the data set: Activity of enzymes to degrade glycogen under neutral pH. Type of data set: biochemical. The following applies: neutral pH of the cellular environment.

B1: human pancreatic α-amylase: enzyme component of VAL-0417, degrades glycogen (protein, UniProt P04746 16-511, looked up)
Pancreatic alpha-amylase: QYSPNTQQGRTSIVHLFEWRWVDIALECERYLAPKGFGGVQVSPPNENVAIYNPFRPWWERYQPVSYKLCTRSGNEDEFRNMVTRCNNVGVRIYVDAVINHMCGNAVSAGTSSTCGSYFNPGSRDFPAVPYSGWDFNDGKCKTGSGDIENYNDATQVRDCRLTGLLDLALEKDYVRSKIAEYMNHLIDIGVAGFRLDASKHMWPGDIKAILDKLHNLNSNWFPAGSKPFIYQEVIDLGGEPIKSSDYFGNGRVTEFKYGAKLGTVIRKWNGEKMSYLKNWGEGWGFVPSDRALVFVDNHDNQRGHGAGGASILTFWDARLYKMAVGFMLAHPYGFTRVMSSYRWPRQFQNGNDVNDWVGPPNNNGVIKEVTINPDTTCGNDWVCEHRWRQIRNMVIFRNVVDGQPFTNWYDNGSNQVAFGRGNRGFIVFNNDDWSFSLTLQTGLPAGTYCDVISGDKINGNCTGIKIYVSDDGKAHFSISNSAEDPFIAIHAESKL
As to B1, the “activity to degrade glycogen” value is “best activity”.
